Earlier results, collected in article PMC7337045.

Target: IRS-1 phosphopeptide (UniProt P35570)
Sequence (P35570 whole entry, looked up, tested part not stated): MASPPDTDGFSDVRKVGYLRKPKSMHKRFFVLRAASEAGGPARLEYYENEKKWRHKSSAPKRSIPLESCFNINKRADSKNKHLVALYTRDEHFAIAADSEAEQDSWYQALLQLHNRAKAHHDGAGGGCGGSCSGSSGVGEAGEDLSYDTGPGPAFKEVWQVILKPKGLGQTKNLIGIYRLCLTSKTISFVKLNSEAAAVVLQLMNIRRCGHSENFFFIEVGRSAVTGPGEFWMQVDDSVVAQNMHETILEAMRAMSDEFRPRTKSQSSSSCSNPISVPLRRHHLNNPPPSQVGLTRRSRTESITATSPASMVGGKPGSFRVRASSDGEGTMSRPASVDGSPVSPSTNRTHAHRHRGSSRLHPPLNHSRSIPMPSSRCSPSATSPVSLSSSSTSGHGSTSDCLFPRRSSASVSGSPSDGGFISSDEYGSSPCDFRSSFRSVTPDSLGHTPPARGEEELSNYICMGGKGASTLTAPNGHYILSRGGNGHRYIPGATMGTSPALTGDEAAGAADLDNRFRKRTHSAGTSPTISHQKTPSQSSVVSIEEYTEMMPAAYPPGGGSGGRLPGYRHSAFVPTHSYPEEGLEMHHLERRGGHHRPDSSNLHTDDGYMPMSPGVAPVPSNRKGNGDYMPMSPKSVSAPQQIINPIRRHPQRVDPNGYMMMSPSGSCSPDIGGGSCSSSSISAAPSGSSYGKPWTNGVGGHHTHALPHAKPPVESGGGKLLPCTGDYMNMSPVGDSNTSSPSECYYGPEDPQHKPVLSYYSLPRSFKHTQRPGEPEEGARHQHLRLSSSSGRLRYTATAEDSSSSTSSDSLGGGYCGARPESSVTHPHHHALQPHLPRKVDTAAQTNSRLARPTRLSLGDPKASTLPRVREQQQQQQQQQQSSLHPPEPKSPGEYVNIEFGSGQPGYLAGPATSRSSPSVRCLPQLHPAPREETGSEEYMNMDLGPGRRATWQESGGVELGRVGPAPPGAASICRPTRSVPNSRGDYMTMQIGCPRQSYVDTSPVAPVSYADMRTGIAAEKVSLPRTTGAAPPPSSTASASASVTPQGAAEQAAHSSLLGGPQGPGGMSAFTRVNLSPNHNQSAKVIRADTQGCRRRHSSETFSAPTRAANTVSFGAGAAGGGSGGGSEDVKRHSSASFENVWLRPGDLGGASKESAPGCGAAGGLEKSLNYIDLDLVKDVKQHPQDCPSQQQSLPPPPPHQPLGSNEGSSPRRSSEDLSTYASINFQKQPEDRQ

SHP2 N-SH2 (from UniProt Q06124)
Kd: 0.014 µM
